In the Immune Epitope Database (IEDB):

Legend:
Assay in all cases: IEDB peptide-MHC binding, purified MHC/competitive/radioactivity; filed as Kd, often an IC50 or EC50 that approximates it; ≥ and ≤ were set here for values at or beyond the usual limits of such assays
[1] = target: HLA-A*02:06
[2] = target: HLA-A*02:03
[3] = target: HLA-A*02:02
[4] = target: HLA-A*11:01; conditions: source organism: Vaccinia virus WR
[5] = target: HLA-A*68:01; conditions: source organism: Vaccinia virus WR
[6] = target: HLA-A*31:01; conditions: source organism: Vaccinia virus WR
[7] = target: HLA-A*33:01; conditions: source organism: Vaccinia virus WR
[8] = target: HLA-A*03:01; conditions: source organism: Vaccinia virus WR
[9] = source organism: Dengue virus 1 Brazil/97-11/1997
[10] = source organism: Vaccinia virus WR
[11] = source organism: SARS coronavirus Tor2
[12] = source organism: HIV-1 M:B_ARV2/SF2
[13] = source organism: Dengue virus 3 Martinique/1243/1999
[14] = source organism: Mammarenavirus lassaense
[15] = source organism: Mammarenavirus brazilense

Sequence	Kd [2, 10]	Kd [1, 10]	Kd [3, 10]	other results
YVVTTDISEM				Kd [1, 9]: 1160 nM
VILPDKIDGL	10800 nM	240 nM	8090 nM	
ILLILSCIFA	307 nM	492 nM	448 nM	
ATFRDMLLNV	0.398 nM	3.03 nM	7.06 nM	
IAACAMLLV				Kd [2, 11]: 387 nM; Kd [1, 11]: 131 nM; Kd [3, 11]: 320 nM
TLATGPLTTL				Kd [2, 9]: 9.26 nM
LTFGWCFKLV				Kd [2, 12]: 167 nM; Kd [1, 12]: 20.1 nM; Kd [3, 12]: 910 nM
TISGNIYSA	18.9 nM	179 nM	84.5 nM	
LLEMKYALI	135 nM	14900 nM	354 nM	
MMNITRLEVI	26.1 nM	134 nM	85.4 nM	
IMAFILGIII	3160 nM	3190 nM	632 nM	
PIIYSKAGNI	139 nM	728 nM	654 nM	
ILFILFFAYV	366 nM	1210 nM	132 nM	
YVEHDPRLVA	16200 nM	11900 nM	18600 nM	
KLREVYTQL				Kd [2, 13]: 39.1 nM
DISSFYWSL	6870 nM	3970 nM	391 nM	
AAAATCALV	9.05 nM	12.5 nM	14.6 nM	
ELPYVGDTSM	14200 nM	≥ 29900 nM	4130 nM	
ELLEMKYAL	863 nM	6010 nM	952 nM	

Sequence	Kd [2, 10]	Kd [1, 10]	Kd [3, 10]	other results
LLKETIQKDI	782 nM	≥ 23400 nM	3060 nM	
VATFRDMLL	9940 nM	7720 nM	2530 nM	
DVDMDFDLNI	1520 nM	5820 nM	2030 nM	
YIRRNMINKL	69.6 nM	8660 nM	820 nM	
KINPLLDEPL	304 nM	18.6 nM	53.4 nM	
KQIMECSRML	≥ 29600 nM	59.5 nM	54.8 nM	
WLMWFIISIV				Kd [2, 11]: 4.72 nM; Kd [1, 11]: 107 nM; Kd [3, 11]: 246 nM
QLEELEDEL				Kd ([2]; source organism: Homo sapiens): ≥ 68400 nM
GTIILNKIV	3400 nM	1430 nM	1190 nM	
YIEDELRRA	259 nM	1230 nM	1760 nM	
ALALEQYGI	40 nM	548 nM	0.695 nM	
NCLSLLLSV				Kd [2, 14]: 437 nM; Kd [1, 14]: 630 nM; Kd [3, 14]: 48.7 nM
TLILAPTRVV				Kd ([2]; source organism: Dengue virus 2 Jamaica/1409/1983): 42.6 nM
RLYDYFTRVT	551 nM	691 nM	2450 nM	
KVIKLVKSLV	13400 nM	2140 nM	14300 nM	
IMFMLIFNV	10.2 nM	13.1 nM	0.146 nM	
EATFIDVHI	862 nM	3430 nM	1660 nM	
TLLCVLAAL				Kd [2, 11]: 10.6 nM; Kd [1, 11]: 7.98 nM; Kd [3, 11]: 8.1 nM
SINITPDDGL	1230 nM	0.343 nM	413 nM	

Sequence	Kd [2, 10]	Kd [1, 10]	Kd [3, 10]	other results
LVIGVAFLAV				Kd [2, 11]: 22.4 nM; Kd [1, 11]: 2.6 nM; Kd [3, 11]: 2710 nM
TAEQLSKYV	8900 nM	≥ 23900 nM	5220 nM	
SITPNNLNKI	≥ 70400 nM	≥ 69800 nM	14900 nM	
VVKDKIKLPT	8600 nM	≥ 29200 nM	≥ 37300 nM	
QLSNNKYVL	4940 nM	10700 nM	78.5 nM	
DMLKLFTHDI	16.1 nM	2970 nM	196 nM	
LALWDSNFFT	19900 nM	1250 nM	11000 nM	
AVTLNRIKI	3340 nM	7610 nM	10800 nM	
FAVGLLFRRL				Kd [1, 9]: 20.4 nM
SLVSAGSGKV				Kd [2, 13]: 19.4 nM
YQVKTETTI				Kd ([1]; source organism: Dengue virus 4 Philippines/H241/1956): 26.3 nM
SILSLETVKM	455 nM	806 nM	203 nM	
SNPNLFWAV				Kd [2, 15]: 6150 nM; Kd [1, 15]: 34.6 nM; Kd [3, 15]: 170 nM
YLGHSAGFTA	86.1 nM	144 nM	16.4 nM	
LLALNDMGKV				Kd [2, 13]: 15 nM
YIWKSYVHI				Kd [2, 11]: 12.9 nM; Kd [1, 11]: 8.89 nM; Kd [3, 11]: 86.4 nM
NIREGTHVLL	5510 nM	≥ 34600 nM	8880 nM	
SLFYTFAISY				Kd [4]: 9.18 nM; Kd [5]: 1320 nM; Kd [6]: 5780 nM; Kd [7]: ≥ 31800 nM; Kd [8]: 3.62 nM
